± gives the uncertainty stated by the source.

The results in this text go back to the Human Domainome abundance scans (Beltran et al. 2025).

B1: DnaJ homolog subfamily C member 5, residues 16 to 77; numbered along this chain, Q9H3Z4 (parent)
chain: LYHVLGLDKNATSDDIKKSYRKLALKYHPDKNPDNPEAADKFKEINNAHAILTDATKRNIYD

The variants in the data set derive from B1. The experiment in a line: abundance fitness (aPCA) (normalised: wild type 0, dead -1); higher = more abundant; growth selection in yeast, the domain comes from the species named. The settings on record: Homo sapiens.
Take LYHVLGLDKNATSDDIKKSYRKLALKYHPDKNPDNPEAADKFKEINNAHAILTDATKRNIDD [Y61D]: the abundance fitness was 0.22 ± 0.12.

For the variant LYHVLGLDKNATSDDIKKSYRKLALKYHPDKNPDNPEAADKFKEINNAHAILTDATKRNIVD [Y61V], the abundance fitness is 0.002 ± 0.083.

With LYHVLGLDKNATSDDIKKSYRKLALKYHPDKNPDNPEAADKFKEINNAHAILTDATKRNICD [Y61C], the abundance fitness was -0.063 ± 0.098.

In the case of LYHVLGLDKNATSDDIKKSYRKLALKYHPDKNPDNPEAADKFKEINNAHAILTDATKRNISD [Y61S], the abundance fitness came out at 0.182 ± 0.067.

On to LYHVLGLDKNATSDDIKKSYRKLALKYHPDKNPDNPEAADKFKEINNAHAILTDATKRNIED [Y61E], for which the abundance fitness turned out to be 0.157 ± 0.12.

Regarding LYHVLGLDKNATSDDIKKSYRKLALKYHPDKNPDNPEAADKFKEINNAHAILTDATKRNIQD [Y61Q], the abundance fitness came to 0.104 ± 0.14.

Consider LYHVLGLDKNATSDDIKKSYRKLALKYHPDKNPDNPEAADKFKEINNAHAILTDATKRNIID [Y61I], for which the abundance fitness was -0.129 ± 0.11.

For LYHVLGLDKNATSDDIKKSYRKLALKYHPDKNPDNPEAADKFKEINNAHAILTDATKRNIHD [Y61H], the abundance fitness is 0.054 ± 0.21.

For the variant LYHVLGLDKNATSDDIKKSYRKLALKYHPDKNPDNPEAADKFKEINNAHAILTDATKRNIKD [Y61K], the abundance fitness was -0.174 ± 0.15.

As to LYHVLGLDKNATSDDIKKSYRKLALKYHPDKNPDNPEAADKFKEINNAHAILTDATKRNIPD [Y61P], the abundance fitness was 0.244 ± 0.12.

For the variant LYHVLGLDKNATSDDIKKSYRKLALKYHPDKNPDNPEAADKFKEINNAHAILTDATKRNIMD [Y61M], the abundance fitness is -0.218 ± 0.12.

Turning to LYHVLGLDKNATSDDIKKSYRKLALKYHPDKNPDNPEAADKFKEINNAHAILTDATKRNIGD [Y61G], the abundance fitness is 0.226 ± 0.063.

Turning to LYHVLGLDKNATSDDIKKSYRKLALKYHPDKNPDNPEAADKFKEINNAHAILTDATKRNIFD [Y61F], the abundance fitness is -0.273 ± 0.12.

On to LYHVLGLDKNATSDDIKKSYRKLALKYHPDKNPDNPEAADKFKEINNAHAILTDATKRNILD [Y61L], for which the abundance fitness is -0.09 ± 0.087.

In the case of LYHVLGLDKNATSDDIKKSYRKLALKYHPDKNPDNPEAADKFKEINNAHAILTDATKRNIRD [Y61R], the abundance fitness was determined as 0.03 ± 0.076.

LYHVLGLDKNATSDDIKKSYRKLALKYHPDKNPDNPEAADKFKEINNAHAILTDATKRNIAD [Y61A]: the abundance fitness amounted to 0.165 ± 0.089.

For LYHVLGLDKNATSDDIKKSYRKLALKYHPDKNPDNPEAADKFKEINNAHAILTDATKRNIND [Y61N], the abundance fitness was -0.199 ± 0.16.

Turning to LYHVLGLDKNATSDDIKKSYRKLALKYHPDKNPDNPEAADKFKEINNAHAILTDATKRNITD [Y61T], the abundance fitness worked out at 0.073 ± 0.11.

On to LYHVLGLDKNATSDDIKKSYRKLALKYHPDKNPDNPEAADKFKEINNAHAILTDATKRNIWD [Y61W], for which the abundance fitness was -0.511 ± 0.12.

Take LYHVLGLDKNATSDDIKKSYRKLALKYHPDKNPDNPEAADKFKEINNAHAILTDATKRNIYN [D62N]: the abundance fitness is -0.465 ± 0.12.

Take LYHVLGLDKNATSDDIKKSYRKLALKYHPDKNPDNPEAADKFKEINNAHAILTDATKRNIYK [D62K]: the abundance fitness is -0.661 ± 0.27.

Regarding LYHVLGLDKNATSDDIKKSYRKLALKYHPDKNPDNPEAADKFKEINNAHAILTDATKRNIYL [D62L], the abundance fitness is -0.472 ± 0.28.

With LYHVLGLDKNATSDDIKKSYRKLALKYHPDKNPDNPEAADKFKEINNAHAILTDATKRNIYW [D62W], the abundance fitness was -0.546 ± 0.27.

LYHVLGLDKNATSDDIKKSYRKLALKYHPDKNPDNPEAADKFKEINNAHAILTDATKRNIYM [D62M]: the abundance fitness was -0.743 ± 0.15.

LYHVLGLDKNATSDDIKKSYRKLALKYHPDKNPDNPEAADKFKEINNAHAILTDATKRNIYR [D62R]: the abundance fitness was -0.428 ± 0.4.

On to LYHVLGLDKNATSDDIKKSYRKLALKYHPDKNPDNPEAADKFKEINNAHAILTDATKRNIYG [D62G], for which the abundance fitness is -0.16 ± 0.083.

In the case of LYHVLGLDKNATSDDIKKSYRKLALKYHPDKNPDNPEAADKFKEINNAHAILTDATKRNIYT [D62T], the abundance fitness is -0.894 ± 0.49.

LYHVLGLDKNATSDDIKKSYRKLALKYHPDKNPDNPEAADKFKEINNAHAILTDATKRNIYY [D62Y]: the abundance fitness was -0.849 ± 0.29.

As to LYHVLGLDKNATSDDIKKSYRKLALKYHPDKNPDNPEAADKFKEINNAHAILTDATKRNIYV [D62V], the abundance fitness was -0.662 ± 0.14.

Take LYHVLGLDKNATSDDIKKSYRKLALKYHPDKNPDNPEAADKFKEINNAHAILTDATKRNIYA [D62A]: the abundance fitness is -0.188 ± 0.12.

Take LYHVLGLDKNATSDDIKKSYRKLALKYHPDKNPDNPEAADKFKEINNAHAILTDATKRNIYQ [D62Q]: the abundance fitness is -0.58 ± 0.38.

Regarding LYHVLGLDKNATSDDIKKSYRKLALKYHPDKNPDNPEAADKFKEINNAHAILTDATKRNIYP [D62P], the abundance fitness is -0.349 ± 0.17.

Consider LYHVLGLDKNATSDDIKKSYRKLALKYHPDKNPDNPEAADKFKEINNAHAILTDATKRNIYS [D62S], for which the abundance fitness is -0.421 ± 0.13.

Take LYHVLGLDKNATSDDIKKSYRKLALKYHPDKNPDNPEAADKFKEINNAHAILTDATKRNTYD [I60T]: the abundance fitness came out at 0.054 ± 0.12.

For LYHVLGLDKNATSDDIKKSYRKLALKYHPDKNPDNPEAADKFKEINNAHAILTDATKRNVYD [I60V], the abundance fitness stood at 0.176 ± 0.093.

Consider LYHVLGLDKNATSDDIKKSYRKLALKYHPDKNPDNPEAADKFKEINNAHAILTDATKRNWYD [I60W], for which the abundance fitness came out at 0.008 ± 0.09.

Regarding LYHVLGLDKNATSDDIKKSYRKLALKYHPDKNPDNPEAADKFKEINNAHAILTDATKRNYYD [I60Y], the abundance fitness is -0.074 ± 0.16.
